{
  "source": "the supplement of paper PMC12455559",
  "data": [
    {"experiment": "purified protein yield per well (BCA); higher = higher soluble expression", "how_it_was_run": "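Expression was done in E. coli C41(DE3), using 2 mL autoinduction cultures with 100 µg/mL kanamycin incubated at 37 °C for 2 h and at 18 °C for 40 h. Protein was purified on Ni-charged magnetic beads and released by SUMO protease cleavage. Yield of purified protein per well was measured with the Pierce Rapid Gold BCA kit; values below 25 ug (0.1 mg/mL) are below detection.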", "units": {"purified protein yield per well": "µg"}, "values": [
      {"sequence": "IRETRVSSSVRGFGGGTIYYPTGTSGTMGAIVVIPGFVSPESSIAWWGPKLASHGFVVMTIATNRTTDQPSSRATQINAALDYLISQNSTSGSPVRNMIDTDRLGVMGWSMGGGGTLRVASQNRLKAAIPLAPYDTISFRNVDAPTLIFGCESDTVAPVRNHASPFYNQIPAGTDKAFVELNGGSHTCANGGNQYLSLIHI [ESM057]", "purified protein yield per well": "< 25"},
      {"sequence": "QTSAPTSASLNASSGPLSVSTASVTLPRGFGGGTIYYPTVAAKYGVIAISPGFTATQSSIAWLGRRIATHGFVVITINTNTTLDQPDSRATQLVAALNHVLNSSGTAVRSRIDPARLAVAGHSMGGGGSLIAARDNPTLKASYPMTPWNISSNFSTVRVPTMIIGADGDTVAPVGTHARPFYASLPSSTFKAYGELNGATHFAPNTTSTPIGRYAVAWMKRFVDGDTRYSPFLCGAQHTSYATGLVFDRYNQNCPY [ESM054]", "purified protein yield per well": "< 25"},
      {"sequence": "AQPQKGPDPTEQLVKSQTGPFDIARTSVPAGSGRGFNKGTLYYPTDTSQGAYAAVAVIPGFFEGEYTQSWFGPALASHGFVVFTLETHGLFDFPDQRGDQLIAALDWLVASSPVKDRVDPARLAVMGHSMGGGGTLAAANKRPSIKAAVALTPWHMTKRFPGIEAATMIIGAQSDSIASVSGHAEPMYAALTSPDEHAYVELTGGHFVTNSYTATNMRFILPWLKRFLDSDTRYSPFVCPGPAQDSTFVEYRNTCPV [TEP047]", "purified protein yield per well": "< 25"},
      {"sequence": "YILASGFVGQLVAQTPSLEALGRQGPYQVAWYTQLPSVPEFSGATLYFPANKAQDFGGVVISPGFFERQENISWWGNYLASHGFAVITFDTNELRDLPPLRADALLATIDLLRGENSRQGSAVRGKILEDSMAVMGHSMGGAAALLLANENSNEIKAAIPFNAGGLRNANFSAVAVPTLVIAGEIDRLAPVNEHAWSHYQTLT [TEP088]", "purified protein yield per well": "< 25"},
      {"sequence": "IENGPAPTLADLQKDGPYAVTSQVVKGSGFGGGTVYSPNTAGKYALVAVCPGFVSPQSSMTDMSKRLATHGFVVVAITTNTLFDFPSSRATQLLAALKTVAALNTGAAAGKIDITRQVVSGWSMGGGGTLEAAGVTPGLTAAVAFAPWDTATTKMKTLTVPVAIFGGTNDTIAPVSGHSQKFYDIIPATTKKMLAVITGADHFFPTKASEPTSYSNISWVKRFADGDTRYSQFLNGQDAALASFTSTGPF [ESM138]", "purified protein yield per well": "< 25"},
      {"sequence": "QDCDSLKISSISNPGPYKVKKILEKDGLRDGPDYYGATLYYPEDATPPFASIVIVPGFWSYEPSIQAWGPFLASHGIVTLTIGTNILSDFPEQRALALLDAAETIKQEIIRESSPLYGSLDPTKIAVSGWSMGGGGAQMAAVLDTTLKAVMALAPWQNTQLTETAFNHPVPTLIFSGEKDPTAPASMHATVHYNYTPQTTSKLLFEIKNGNHSVANTPEGGNGDVGRIAIAWLKNLLVGQPCYCPLLLDPPVSASKYVTNLQCSSIASVSRPDGKDDFSP [TEP159]", "purified protein yield per well": "< 25"},
      {"sequence": "GQSCDSLLLQSITNPGPFPVNNIDENSGIRNGPNYNGSTIYYPANNVNTLYSSIIMVPGFMNTELTIQNWGPFFASHGIITMTIGANGLTDTHIQRRDALLDAIVSLKNENQRVASPLFGKIDTFSIAVGGVSKGGGGAQLVPAIDLSIKAIVSLYPWLDNPTSSDLNHSVPVIIISGQLDALAPPSLHADIHYNLTPNTTNKLKYEVAFGTHDVISGPNGGNGEVGIRVISWLQNFLLSDSCYCPITILDASTSSSYITNVVCSNTTVGISQLEPYFLKKVLKIIDVLGREAEGNKNEPLFYIYNDGTVEKKIIIE [TEP017]", "purified protein yield per well": "< 25"},
      {"sequence": "IENGPAPTFSSVQADGPFAVSTQTVRGSGFGGGTVYSPNTAGKYAVVAVCPGFTATQTSIALISRRLATHGFVVVTINTNTVYDYPASRANQLLAALRTVTALTTGPVAGKMDTSRQAVSGWSMGGGGAMLAAGMTPGLKAGVAFAPWSLTNNVGSSAVPMAYLAGTADTVAPASVHSSVFYNATPATTKKLIGVIQGADHYFPGTASQPASYTQVAWMKRFLDGDTRYSQFLNGDTRFATFRSTGPF [ESM109]", "purified protein yield per well": "< 25"},
      {"sequence": "AGEQEYRRGPDPTLASLQAQEGPFAYATVTVPDQATYDGGTIYYPTDTSQGTFGAIAISPGYTGYQNSIAWYGRLLASNGFVVFTIDVENTNYDQPNARGEQLLDALDYLTQTSSVRSRIDPNRLAVAGHSMGGGGALRASYLRPSLQASIPLTPYHTWKNWSWVTVPTMIFGAENDTVTEVEDHAEPFYNTLTSAQERFYIELNAPADHLTPTSYDPTIGQYPRAFAKRYIDTDTRYEQFLCPPPAPSSAVEESRRACLGS [DP031]", "purified protein yield per well": "< 25"},
      {"sequence": "AADNPYERGPDPTEQSVTAIRGPFNVAQTDVSRLAVTGFGGGTIYYPTDTSQGTFGAIAISPGFTAYWSSLSWLGPRLASQGFVVFGIETNTTLDQPAQRGQQLLAALDYLTQRSSVRSRVDASRLAVAGHSMGGGGTLEAAKSRTSLKAAIPIAPWNLDKTWPEVRTPTLIIGGELDSIAPVATHSKPFYSSLSNAPEKAYLELDNASHFFPQISNTTMAKYMISWMKRFIDNDTRYDQFLCPPPRAIGDISDYQDTCPHS [TEP031]", "purified protein yield per well": "< 25"},
      {"sequence": "AAPAHHAAPAHAAVHHHAPFALRTTVVPRTAVTKFGGGVIYEPRDTGKPVLGAVVITPGFTDTNADEKEYAELVASQGFVAFAIDTLDTGDIPADRATQMLAAVDWLTGSSPVKAEVSPDRVALLGYSFGGGGAMQAAQSRPSIKAVVGMMPFDAPPESDPNATTPAYPRMTTPTLVITGQEDDVADPKYFGKPAYDSIPAGTPKQYLELKGLGHGAGEHMPVPTVRTAVTAFLKRYLDGNSAYGRFICPAPKAVGPISASLSSCPRG [ESM110]", "purified protein yield per well": "< 25"},
      {"sequence": "ATVACSDCSNGFQRGTLPRVDQLESSRGPYSVKTSNVSVFARGFGGGTIHYSTDSGGQQGIIAVIPGYVSYESSIKWWGPRLASWGFTVITINTNTIYDQPNSRANQLSAAIDYVIDKGNDRSSPIYGLVDPERVGVIGWSMGGGGTLKLATDRDIDAIIPQAPWYSGLNSFSRITTPTMVIACQADAVAPVALHASIFYNQIPRSTPKAFFEIAAGSHFCGNSGYPNEDILGRNGVAWMKRFIDNDTRYNQFLCGQNFDRSLRVSDYKDTCNTY [DP094]", "purified protein yield per well": "< 25"},
      {"sequence": "FTPSPDPTPDPEPTPEPCQGDCDFTRGPDPSISYLEADNGPYTVRTIDVPSSAGSFNGGTIHYPSGTSGTMGAIAVASGFLAPEGDIIWWGPRLASHGFVVITISTPTFDGEDRRATQLSEALDYVIAQSNSNGSDISGMVDGSRLGAMGWSMGGGGTLQLASGTRLSAAIPLAPWNSGSNNFDQIETPTLIIACENDGTAAVGTHASPFYHSIPASTDKAFLEINGGGHSCANGGGTNGGLLGKYGVSWMKLFMDDDSRYSQFLCGPNHAANSAISEYRDTCNY [DP049]", "purified protein yield per well": "< 25"},
      {"sequence": "YNPPPPPPDPGPGPGQPSDGFERGPNPSVSFLEASRGPFSIRETRVSGTVRGFGGGTIYYPTGTSGTMGAIVVIPGFVSPESSIAWWGPKLASHGFVVMTIATNSGYDQPRSRATQINSALDYLIDQNSDSRSPVRNMIDTDRLGVMGWSMGGGGTLRVASQNRLKAAVGLAPYDTISFRNVDAPTMILACESDTIAPVRNHASPFYNEIPFNTDKAFFEINGGSHTCANGGNRFNETLSRLGVSWMKR [ESM179]", "purified protein yield per well": "< 25"},
      {"sequence": "QPIDSLETLSIKEQSTITLPTTLATKIPLTEVPATKIPLTTTTSTSPTSNCIPDSVITAAELSATRDNGPFTVATKSVPRQLANGFGGGTIHYPTNAGDCGLLGGIAVIPGYVSYEASIKWWGPRLASWGFVVITIDTNSIYDDPDSRATQLSAALDHILSDSTVGAQIDSTRLGAIGWSMGGGGALQLATKRSDIRVIIPQTPYHDKDYGNMDTPALFITCQNDRIASNKKYSSPFYNNAAGAKMKIEIKNGSHFCPSYRFNEILLSKPGIAWMHRYINGDTRFDKFLCNNENYGNSPRISAYDYKDCG [TEP174]", "purified protein yield per well": "< 25"},
      {"sequence": "RDLPPSAPLAANPYERGPAPTVASIEATLGPFATAQTTVAAGSVSGFGGGTIYYPTSTAEGTFGAVAISPGFTARQTSVAWLGPRLASQGFVVITIDTRSVYDQPASRGTQLLAALDYLTNTSTVRTRIDRNRLAVMGHSMGGGGSLSAASTRPALQAAIPLTGWHTQKSWSSVRVPTLVIGAENDTVAPVSSHSEPFYTSLPATLDKAYLELNAASHSAPTSSNVTVAKYSISWLKRFVDDDTRYEQFLCPAPRGSAIEEYRDTCPHS [TEP042]", "purified protein yield per well": "< 25"},
      {"sequence": "VQNGPNPTLDAIKADGPYAITSQAVAGNGFGAGTIYMPTAAGKYALVAICPGFVSAQSTMAGMAKRLATHGFVVVAISTNTLFDFPSSRATQLLAALKTVSALNTGAVVGKIDTTRQAVSGWSMGGGGTLEAAGATPGLVAAVAFAPWDTSTTKMKVNKVPAAIIGGSSDVIAPVASHSQKFYDAIPATTPKLLAVINGADHFFPTKASEPASYTNISWMKRFADGDTRYSSFLNGNDAALSSFSSNGPF [ESM056]", "purified protein yield per well": "< 25"},
      {"sequence": "FDPPNGAVIMVPGFRGTPPVYDWWGPMLASVGVITMIIETNTPEDSLEARKNAFIAGVEFLSGENDNPASPIRDKLDTSNIAIMGHSLGGGASLRAAEELGSRIKAVIPLTPYCCELGQSFEGNLSGVSVPTLIIASAEDAIAPPAEHARMLYDSVNAATEKVYLEFATGNHMLPSNSGQDLETLGTYVYAFIKENFTDNPRYADFIFGDGEEQFSTYEISQ [TEP136]", "purified protein yield per well": "< 25"},
      {"sequence": "QVVVFEETFSTGLGKFTAAGSVVTSSGAARLDGCYGCTDGSITSTAISTVDFTGLRLSFDRVTSGLDSGEAGIAEFSTNGSTYTAVESIRTASGRVTFNLPTSAENQSGLRLRFRINASLSSETYTVDNIRLEGTSGSGGGTTNPFEKGPDPTKTMLEASTGPFTYTTTTVSSTTASGYRQGTIYHPTNVTGPFAAVAVVPGYLASQSSINWWGPRLASHGFVVITIDTNSTSDQPPSRATQLMAALNQLKTFSNTSSHPIYRKVDPNRLGVMGWSMGGGGTLIAARDNPTLKAAIPFAPWNSSTNFSTVSVPTLIIACESDSTAPVNSHASPFYNSLPSTTKKAYLEMNNGSHSCANSGNSNAGLIGKYGVSWMKRFMDNDTRFSPYLCGAPHQADLSLTAIDEYRENCPY [TEP066]", "purified protein yield per well": "< 25"},
      {"sequence": "ANPYERGPAPTLSSIQATTGPFATATTTVPSGNGFGGGTIYYPTDTSQGTFAAIAMSPGFFNTQSAISWYGKRIASQGFVFLTINTNTILDFPDSRATQLLAALDYLTQSSPVSSLIDSSRLGVMGYSMGGGGTLKASKTRPSLEAAVGVAPWHSTKNWSTNTVPSMMLGMQNDTVAPASSHAIPFYNSLPASIHKVYAEVRGASHSTPTSANTPIAQYSIAFLKQELDNDTRYTQFLCPAPAVGGTNPLSAYSSTCPF [DP067]", "purified protein yield per well": "< 25"},
      {"sequence": "MRSDCSPPWRWWPGAALAPAANAAAPAHPVRLAANPYERGPAPTEASITAEKGPFAIERIDVPAGSGPGFNKGTIYAPTDLSQGTFGAIAVSPGFVSPQAWIDWYGPRLATQGFVVMTLETNSLFDVPAARGEQLLAALDYMTGGSRVKDRIDASRLAVMGHSMGGGGTLEAADDRPALQAAVPLAPWNTNYDWKNVRVPTMIMGADNDAIAPADSMAESYYDNLTSVPEKAYLELKNAGHMTFNSPNTTIAKYTIAWMKRFVDDDARYERFLCPEPAPGATIAQYEGTCPTG [TEP141]", "purified protein yield per well": "< 25"}
    ]}
  ]
}
